{"source": "the RNAGym collection of RNA variant scans (doi:10.1073/pnas.2313332121)", "parents": {"B1": {"name": "TPR t1 (parent)", "chain": "GACCAAUCUGCCCUCAGAGCUCGAGAACAUCUUCGGAUGCAGAGGAGGCAGGCUUCGGUGGCGCGAUAGCGCCAACGUCCUCAACCUCCAAUGCAUCCCACCACAUGAUGAUGCCUGAAGAGCCUUGGUUUUUUG"}}, "data": [{"variants_of": "B1", "test": "polymerase ribozyme fitness, log enrichment relative to wild type (log ratio); higher = more active; in vitro selection for triplet polymerase activity", "in_short": "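Mutant libraries were PCR-built and transcribed for each subunit of a heterodimeric triplet polymerase ribozyme and selected for one round in triplicate at −7 °C, frozen, before gel excision of extended constructs and streptavidin-bead capture. Input and output libraries were Illumina-sequenced, keeping genotypes with ≥10 input reads and ≥1 read per output. Fitness is a logarithmic ratio of genotype to wild-type enrichment, in base 2, using inverse-variance-weighted replicate averages.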", "values": [{"variant": "C49U A66G", "polymerase ribozyme fitness (log ratio)": -1.95}, {"variant": "A16C U33C C62G U81A A108G G120A C123G", "polymerase ribozyme fitness (log ratio)": -6.36}, {"variant": "G19U U55G C114A U131A", "polymerase ribozyme fitness (log ratio)": 2.05}, {"variant": "G61A G117A", "polymerase ribozyme fitness (log ratio)": -0.803}, {"variant": "A5G C72A C73U U81G U106G A118U A121C", "polymerase ribozyme fitness (log ratio)": -5.16}, {"variant": "C11A C79U G120A", "polymerase ribozyme fitness (log ratio)": 1.38}, {"variant": "G63A A105U U112A", "polymerase ribozyme fitness (log ratio)": -3.65}, {"variant": "G44U C53A C56A A111C", "polymerase ribozyme fitness (log ratio)": -0.781}, {"variant": "C3A G48A A84G", "polymerase ribozyme fitness (log ratio)": -1.29}, {"variant": "C49U C114A", "polymerase ribozyme fitness (log ratio)": -2.34}, {"variant": "U9A A105C G122A", "polymerase ribozyme fitness (log ratio)": -1.54}, {"variant": "U7A", "polymerase ribozyme fitness (log ratio)": 0.257}, {"variant": "G39A G48U A50U A84U C85A", "polymerase ribozyme fitness (log ratio)": -3.82}, {"variant": "A16G G42C A43C C123A", "polymerase ribozyme fitness (log ratio)": -3.43}, {"variant": "C8A G45A", "polymerase ribozyme fitness (log ratio)": 0.134}, {"variant": "A27G G69C", "polymerase ribozyme fitness (log ratio)": -2.33}, {"variant": "A103C G120U", "polymerase ribozyme fitness (log ratio)": -4.69}, {"variant": "C104U G122A", "polymerase ribozyme fitness (log ratio)": 0.442}, {"variant": "U92C U112G G113U U130C", "polymerase ribozyme fitness (log ratio)": -5.75}, {"variant": "G71A U125A", "polymerase ribozyme fitness (log ratio)": -0.783}, {"variant": "A26U C88A", "polymerase ribozyme fitness (log ratio)": -3.45}, {"variant": "G17U C72G", "polymerase ribozyme fitness (log ratio)": -2.35}, {"variant": "G52U C73U A83U G120A C124U", "polymerase ribozyme fitness (log ratio)": -0.229}, {"variant": "A6U G48U U81C A121G", "polymerase ribozyme fitness (log ratio)": 0.747}, {"variant": "C34U C114G", "polymerase ribozyme fitness (log ratio)": -6.1}, {"variant": "A50U C101U A105U A121U U130C", "polymerase ribozyme fitness (log ratio)": -2.62}, {"variant": "C40U C53G A75G G117A", "polymerase ribozyme fitness (log ratio)": -2.56}, {"variant": "C3U G60A U92A", "polymerase ribozyme fitness (log ratio)": -3.06}, {"variant": "G44A A66G", "polymerase ribozyme fitness (log ratio)": -1.89}, {"variant": "C15G C49G G71U A74U U106C C124U", "polymerase ribozyme fitness (log ratio)": -5.29}, {"variant": "C20U G93A", "polymerase ribozyme fitness (log ratio)": -1.32}, {"variant": "C11A G45U C49U C70U U87A", "polymerase ribozyme fitness (log ratio)": -3.95}, {"variant": "C8G G58A G93U C101U A121C", "polymerase ribozyme fitness (log ratio)": 0.327}, {"variant": "C49A C88A G127U", "polymerase ribozyme fitness (log ratio)": -2.42}, {"variant": "A95U C114G", "polymerase ribozyme fitness (log ratio)": -2.97}, {"variant": "U14G A37U A41G G47U C86A U87C", "polymerase ribozyme fitness (log ratio)": -4.82}, {"variant": "A43C G48A C88U", "polymerase ribozyme fitness (log ratio)": -1.82}, {"variant": "U32A G58C C94U", "polymerase ribozyme fitness (log ratio)": -3.96}, {"variant": "A6G C98G", "polymerase ribozyme fitness (log ratio)": -6.34}, {"variant": "C8G C72G", "polymerase ribozyme fitness (log ratio)": 0.418}, {"variant": "C40U G63C A121C", "polymerase ribozyme fitness (log ratio)": 0.618}, {"variant": "G51A U130A", "polymerase ribozyme fitness (log ratio)": -3.19}, {"variant": "A43U G45A U96A A108G C123G", "polymerase ribozyme fitness (log ratio)": -4.02}, {"variant": "A27G G110U", "polymerase ribozyme fitness (log ratio)": -3.11}, {"variant": "C20U C86A", "polymerase ribozyme fitness (log ratio)": -2.3}, {"variant": "U14A G57C G58A G61A A105C U109G", "polymerase ribozyme fitness (log ratio)": -6.86}, {"variant": "C40U C115U U125G U133C", "polymerase ribozyme fitness (log ratio)": -0.584}, {"variant": "C20U G42A G71U C80U C82A U112C", "polymerase ribozyme fitness (log ratio)": -2.53}, {"variant": "G36C G120U", "polymerase ribozyme fitness (log ratio)": -0.655}, {"variant": "A16G C49G G51U C86A U126C", "polymerase ribozyme fitness (log ratio)": -4.58}, {"variant": "C3A A27C G45A C53A C123U", "polymerase ribozyme fitness (log ratio)": -4.25}, {"variant": "C22U A90G", "polymerase ribozyme fitness (log ratio)": -4.43}, {"variant": "U38A C40U C70U C101U C123G", "polymerase ribozyme fitness (log ratio)": -1.32}, {"variant": "C13A C94A", "polymerase ribozyme fitness (log ratio)": -2.07}, {"variant": "G42U C49A C53A U59C C82U", "polymerase ribozyme fitness (log ratio)": -2.94}, {"variant": "C12G A29U", "polymerase ribozyme fitness (log ratio)": -1.54}, {"variant": "C22U A37U G57A C115A", "polymerase ribozyme fitness (log ratio)": -4.73}, {"variant": "G10U A41C G48U G113C", "polymerase ribozyme fitness (log ratio)": -3.37}, {"variant": "G48C G61U C98U U112C", "polymerase ribozyme fitness (log ratio)": -1.23}, {"variant": "C11A G113C G135U", "polymerase ribozyme fitness (log ratio)": -4.88}, {"variant": "G17U G71A A84U U96G G128U U130C", "polymerase ribozyme fitness (log ratio)": -5.57}, {"variant": "C8A C56A", "polymerase ribozyme fitness (log ratio)": 0.505}, {"variant": "C49A A90U A91U A111C A119G U130A U131C", "polymerase ribozyme fitness (log ratio)": -2.85}, {"variant": "C28U U129G", "polymerase ribozyme fitness (log ratio)": -2.18}, {"variant": "G36A C72U U116C", "polymerase ribozyme fitness (log ratio)": -1.78}, {"variant": "C13U G42U G44C C88A", "polymerase ribozyme fitness (log ratio)": -1.42}, {"variant": "C12A G19U C40G C89U C102A U112C C114A", "polymerase ribozyme fitness (log ratio)": -2.47}, {"variant": "U38C U59G A95C", "polymerase ribozyme fitness (log ratio)": -0.718}, {"variant": "C64U U112C", "polymerase ribozyme fitness (log ratio)": 0.999}, {"variant": "C49U C82G U96C C97U C115U U116A", "polymerase ribozyme fitness (log ratio)": -6.51}, {"variant": "G19U G135U", "polymerase ribozyme fitness (log ratio)": -3.57}, {"variant": "A18G G63C C85U G110U", "polymerase ribozyme fitness (log ratio)": -3.81}, {"variant": "A6U G39U C53G A68G U96G", "polymerase ribozyme fitness (log ratio)": -7.34}, {"variant": "G61U C86U G135U", "polymerase ribozyme fitness (log ratio)": -1.31}, {"variant": "A16U G71U U106G A111U", "polymerase ribozyme fitness (log ratio)": -5.64}, {"variant": "C8A C98U", "polymerase ribozyme fitness (log ratio)": -1.12}, {"variant": "G51C C70G U109G", "polymerase ribozyme fitness (log ratio)": -7.25}, {"variant": "G23A C62A", "polymerase ribozyme fitness (log ratio)": -7.09}, {"variant": "C53U C94A", "polymerase ribozyme fitness (log ratio)": -1.44}, {"variant": "A6U C97A", "polymerase ribozyme fitness (log ratio)": -3.55}, {"variant": "C56A A111U", "polymerase ribozyme fitness (log ratio)": -3.34}, {"variant": "A46C U81A G93U", "polymerase ribozyme fitness (log ratio)": -2.96}, {"variant": "U54C A84G U116G", "polymerase ribozyme fitness (log ratio)": -2.35}, {"variant": "C62A A74G", "polymerase ribozyme fitness (log ratio)": -5.22}]}]}
